The target in this experiment is T1, Ig-V domain of human SIRPα V1 (crystallography construct) (human, UniProt P78324-1).
T1 construct: Signal regulatory protein α, human, allele v1, IgV domain as crystallised; also called IgV domain of SIRPα v1
Description: crystal structure; Fab-SIRPα V1 complex at 11.3 mg/mL in 10 mM Tris pH 7.4, 50 mM NaCl; sitting drop, 0.1 M sodium acetate pH 4.0, 0.2 M ammonium sulfate, 18% PEG 4000; 2.27 Angstroms. The conditions noted are these: both partners purified.

T1 sequence (P78324 33-147): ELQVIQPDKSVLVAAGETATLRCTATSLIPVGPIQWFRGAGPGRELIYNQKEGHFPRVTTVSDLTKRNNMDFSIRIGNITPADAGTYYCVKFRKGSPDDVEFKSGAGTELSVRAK

B1: hAB21 anti-SIRPα Fab (Fab, V domains shown)
VH: DVQLVESGGGVVRPGESLRLSCEASGFTFSSNAMSWVRQAPGKGLEWVAGISSGSDTYYGDSVKGRLTISRDNSKNILYLQMNSLTAEDTAVYYCARETWNHLFDYWGQGTLVTVSS
VL: ELTQPPSVSVSPGQTARITCSGGSYSSYYYAWYQQKPGQAPVTLIYSDDKRPSNIPERFSGSSSGTTVTLTITGVQAEDEADYYCGGYDQSSYTNPFGGGTKLTVL
notes: Fab heavy chain; Fab light chain (humanized lambda); also called hAB21 Fab; Fab version of the antibody
Turning to B1, the binding result is “binds”.
